Assay [1] has as its target T1, Rab34 Q111L 1-237 (dominant active), purified, GTP-loaded (human, UniProt Q9BZG1 1-237, Q111L).
T1 construct: Rab34, human, residues 1-237 with Q111L; also called Rab34_(Q111L_1-237aa)
T1 sequence (looked up): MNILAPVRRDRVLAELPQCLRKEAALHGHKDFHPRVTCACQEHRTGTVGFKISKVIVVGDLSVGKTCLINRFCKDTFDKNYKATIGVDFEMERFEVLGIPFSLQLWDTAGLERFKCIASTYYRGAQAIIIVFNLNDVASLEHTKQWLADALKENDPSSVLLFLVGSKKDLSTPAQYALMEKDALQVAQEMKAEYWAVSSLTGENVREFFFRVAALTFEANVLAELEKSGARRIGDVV
The experiment in a line: ITC; 500/600 µM GppNHp/GTP Rab titrated into 50/60 µM Rep15; 20 mM Hepes 8.0, 50 mM NaCl, 1 mM MgCl2, 1 mM TCEP; one-site-binding model. As to conditions: both partners purified. On the technique in general: In ITC the heat of successive injections is recorded.

In assay [2] the target is T2, Rab34 Q111L F114Y, purified (human, UniProt Q9BZG1 1-237, Q111L | F114Y).
T2 sequence: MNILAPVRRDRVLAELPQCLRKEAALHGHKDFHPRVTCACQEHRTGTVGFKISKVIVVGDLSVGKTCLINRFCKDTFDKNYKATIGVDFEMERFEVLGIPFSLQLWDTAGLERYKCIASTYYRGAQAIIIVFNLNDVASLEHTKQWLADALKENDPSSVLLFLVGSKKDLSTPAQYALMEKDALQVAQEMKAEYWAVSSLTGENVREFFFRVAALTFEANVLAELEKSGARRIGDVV
The experiment in a line: ITC.

The results in this text go back to article PMC9308819 (Nature Communications, 2022).

The term Kd denotes the equilibrium constant for the complex coming apart. A higher Kd goes with lower affinity.

B1: Rep15, full length (natural N101D variant) (natural protein, human, UniProt Q6BDI9 1-236, looked up)
chain: MGQKASQQLALKDSKEVPVVCEVVSEAIVHAAQKLKEYLGFEYPPSKLCPAANTLNEIFLIHFITFCQEKGVDEWLTTTKMTKHQAFLFGADWIWTFWGSDKQIKLQLAVQTLQMSSPPPVESKPCDLSNPESRVEESSWKKSRFDKLEEFCNLIGEDCLGLFIIFGMPGKPKDIRGVVLDSVKSQMVRSHLPGGKAVAQFVLETEDCVFIKELLRNCLSKKDGLREVGKVYISIL
notes: also called full-length Rep15; Rab15 effector protein
B1: the Kd in assay [1] came to 64 ± 32 nM; in assay [2], 78.7 nM.
